The text below walks through data of the DeepSol protein solubility set.

This series can be described thus: soluble on expression in E. coli; label from the status in PepcDB or PDB records.
Take “MKDQLGFRIVLCSAVFIILTQNRALADLDSESHEVNSESVGEEQWEMVQRKGMQFTLNGQPFYVNGFNTYWMMTLAADNSTRGKVTEVFQQASAVGMTVGRTWAFNDGQWRALQKSPSVYDEEVFKALDFVLSEARKYKIRLILSLVNNWDAYGGKAQYVKWGNASGLNLTSDDDFFTNPTLRNFYQSHVRTVLNRVNTFTNITYKNDPTIFAWELMNEPRCPSDPSGDKLQSWIQEMAVFVKSLDAKHLVEIGLEGFYGPSAPARTRFNPNPYAAQVGTDFIRNNQVLGIDFASVHVYPDSWISPAVSNSFLEFTSSWMQAHVEDAEMYLGMPVLFTEFGVSAHDPGFNTSFRDMMLNTVYKMTLNSTRKGGAGAGSLVWQVFPQGAEFMDDGYAVYLTRAHTASKIISLQSKRLAIFNSLCSWRCRWGCKKKNQTALDALLSHDEL”: the “soluble on expression in E. coli” value is listed as “soluble”.

Consider “MQCCVQLVPFWDTSGVSTMFDYQVSKHPHFDEACRAFALRHNLVQLAERAGMNVQILRNKLNPAQPHLLTAPEIWLLTDLTEDSTLVDGFLAQIHCLPCVPINEVAKEKLPHYVMSATAEIGRVAAGAVSGDVKTSAGRRDAISSINSVTRLMALAAVSLQARLQANPAMASAVDTVTGLGASFGLL”, for which the “soluble on expression in E. coli” value was “not soluble”.

With “MGSDKIHHHHHHMSHRFFYRILGMRYLTSTNRKGYARMLFHRFSEKEWNFLKNDENNECFSCLMFYSRTGNAGRLEEEITDMKVDILSREYPPKVYGGAGVHAEELSKVLAERVDVTVRAFDGPRTAADIPAIPGTDPKGSLTVVGYDVPKELEDANGALKTFGVDLQIANDVDADIIHAHTWYACLAGYLAKMLHDTPLVITAHSLEPFRPWKREQLGGGYNLSSWAEKDAYEHADRVIAVSAGMREDILTAYPNLDPDKVVVVHNGITMSQFETPADDDPGWKVFERYNIDRSKPTLLFVGRITRQKGLPYLLQALHFVDPNIQVVLCAGAPDTPEIMEEVKTAFAKLDEERGNIIWIEEMLPKPELNALEHGCDAFICPSIYEPLGIVNLEAMACGLPVVASATGGIPEVVVDGETGYLVPVDQLHDGTGTPTNPDKFVHDMADAINRIMADPEKAKRMGQAGYERARDHFSWESIADKTVKVYEDVLAERK”, the “soluble on expression in E. coli” value is “not soluble”.

Take “TSKFQWTSDFNIGFNRNRVTELYGGKPELKGLKRLEEGRDMDEWYLREWAGVDPANGSPLWYTTDENGKRTTTDSYNKADRVYCGSAAPKFTGGWMNSFSYKGFTLTANFDFVYGNLLYNQSRELLDSDGAYADYNSMKLKSGWKRWEKEGDIATHPKAINGGNKNSNKSSSRYLEKGNYFSLRNLSLGYSIPEKLCGKLGLQRVNVSCSADNLFTLTPFSGVSPQLSDSSTDGYAGTIYPLSRRIVFGLNVSF”: the “soluble on expression in E. coli” value was “not soluble”.

Take “SAENERMYISYNNIHKLCQGVAKHILARNERPDIIIAITGGGMIPARIIRSFLKTKGQKNIPIQAIGLSLYEDLGLDNSVETIGKEVIRTQWLDFGALNQHFDSLIGKKVLIVDEVDDTRTTLHYAVSELEKEIAEQQKVLNRMSEETVISIFVLHNKDKPKRAGLPDSMMNSGRYIAAQTVPDKWLCYPWDAEDIEEHTMLAKAQGHD”: the “soluble on expression in E. coli” value is on record as “soluble”.

As to “SSSESEKDKERLIQAAKMFFFHVQDLASVINTLTELFSRSMNTQILLMAVRNNSYIKDFFEQMLKIFKEMQSVVDARHDKIQKESLCSKVAMAMCSVVQKSTNVEELHQSAKEVFKSAHTPVIISVLNSSNILGSLESSLSHLMKFPIMNLQLSDFYTEDTKEQSDVTTSERTRSPPGSSKTTMIDTLKKLQDVLKTEDSKNPTKSAADLLEQIVKAMGPILEILQKAIKTMEMNISVFKKASDK”, the “soluble on expression in E. coli” value was “soluble”.

For the sequence “MNIVNKDSKNTFTRMCIGEAIIKLLKDTDFDKIRITSVAKCAGVSRITFYKYYESIHDALCDYLNIIIIEYLEECANNPENGSFLDYSHILFALEFFNRYKDYFLTLSRCGLHSILINSINNFMSEHFTNPKNYSEYRLYCYSGGLLNTFLKWEENGCDCDAGEIARTLEELYS”, the “soluble on expression in E. coli” value was “not soluble”.

For “MSSFLRPAVSGQDPFTTGNYRAISSHLAITPPVSVVIPAMNEAENLPYVFKSLPDWIHEVVLVDGNSTDGTVEVARELWPDVKVVEQRGKGKGDALITGFEACTGDIIVMVDADGSADGQEIVSYVSALVSGADFAKGSRFANGGGTSDMTPIRKLGNRVLCAAVNAKFGARYTDLCYGYNAFWRHCLDQIDLDCTGFEVETLMNIRVVKAGLKVQEIPSHEYLRIHGASNLRAVRDGLRVLKVILKERSNRRALRSRPHAMQLNSGQGEVSLEHHHHHH”, the “soluble on expression in E. coli” value is reported as “soluble”.

In the case of “MDVVFPKMPHHQTVTNVRVPSSRGSAISRAHSEHRRSIDRSEPRHHHRHHVHSETPELPYTRGISKTPSVREYNVKREGQRSPSRSHRSERSPSEVRIPVTTTHTRPIAKRQSPEELDYGRFADKSQQNRFPGDHQAREEDLPYTRGISKTPSNQDSRSERTPCSDIHIPYNNPEKERAYQQSERSSYRSHKSVTPSEKSLPRNSETPELHYTRGISKTPSDRVEKSRYLSRGVSTPHTPSEVHIPYNNPEKERAYQQSHRPSSPKRRPSGRTNSPNKSSSSSKARPSAAPLEEIVHIKERYERDETIRRFFPTTTAV”, the “soluble on expression in E. coli” value is “not soluble”.

For the sequence “MAMDNQGWFSNETATFGDRLAGAREAAGLTQEEMARRLGVRLKTLQSWEDDLAEPRANRLQMMAGMLNVSLRWLLTGEGEGAEGPSEPAILTSEGREALAELARMRTQMLALAQEMGQLEKRMRALLRKEAE”, the “soluble on expression in E. coli” value was “not soluble”.

Regarding “MSVSPFFNPKRDSQLGEMMRDMGGMQRRLMPISGTFNPMTDDSEIMNSNDKFAVNLNVSNFKPEELKVNLEGRQLSIQGEHDVENEHGASRKSFSRMILLPEDVDITSVATNLSNDGKLCIEAPKLEGVCGRSVPVKEASMDHHHIE”, the “soluble on expression in E. coli” value is given as “not soluble”.

Take “MGSDKIHHHHHHMIFKEFGNKNMPTIVFLHGGGLSFWSFKEELSALKNSYRIVTPIIDGHGEDYNNTFISISNSAKHVINYIQESCNGHVFCICGLSLGAQILVEVLSLKHNISEYAVIESALVYPIKLSLNLMVAMNSLAYGLIKKKWFAKLQAKTLNVPQELFETYYKESSKMTKETLINITKSNGSYPMPNSICNTTASTLILVGERELSIMKKSAKLLNETIDNSILNIIPKAKHGEISLAYPKQYLDLLNKLFNSKK”: the “soluble on expression in E. coli” value was “not soluble”.

For “GIPKCPEDWGASSRTSLCFKLYAKGKHEKKTWFESRDFCRALGGDLASINNKEEQQTIWRLITASGSYHKLFWLGLTYGSPSEGFTWSDGSPVSYENWAYGEPNNYQNVEYCGELKGDPTMSWNDINCEHLNNWICQIQKGQTPKPD”, the “soluble on expression in E. coli” value is on record as “soluble”.

Take “MDKNWMIAMHNPATIYNPNAQTEFVEFPIYTVLIDHPEGKILFDTACNPNSMGPQGRWAEVTQQMFPWNASEECYLHNRLEQLKVRPEDIRYVVASHLHLDHAGCLEMFTNATIIVHEDEFNGALQCYARNQKEGAYIWADIDAWIKNNLQWRTVKRHEDNILLAEGVRVLNFGSGHAWGMLGLHVELPETGKIILASDAIYTAENYGPPVKPPGIIYDSLGYVNTVERIRRIAQETNSKIWFGHDAEQFKQFRKSTEGYYE”: the “soluble on expression in E. coli” value was “not soluble”.

“MGSDKIHHHHHHMVKYSGVCILFGAGGGGENALSLLKLEGCNISAIVDNDLKKHNTFLDDTPIYAPEKLNCDLIFDKILIASGYSKSILAQLGQYNISQERIIVLPQYYLKPNRFSDQVLYSLAWDFIFSFSELMNKLNIRYWLDYGTLLGLVRDNDLISWDSDLDFCILDENKGYLINSFSVISEHISSTIGCDVKIELIKGAECEHSRVFISCNRDNVILDIDVFIKFNFSNFVCLEVMDRVERYNAEHYVAVDFLNVKGISLPVPNKYDQYLTRVYGSWCVANKEWTLYS”: the “soluble on expression in E. coli” value is recorded as “not soluble”.

Turning to “MGSDKIHHHHHHMILTVTASPYLLSTNELDGTIEIGEANKIRQVSTVAGGFGTGVAATLFYGGNETFAVFPAPEISHYMRLVTFAGLPHEIIPVAGPIPMHLTMRDAEGNETKFKDSPMPLDVSQLAILRDLVVRRAEDAAWVLLGGNLPSIAPAAWFVDVVRSLRLYHPHVKVAIAATGAALRAVIRQLAATSPDALIVAAEEIEIATGLEPKTLRGPWVEGDLSPTVAAARALIDSGVTEVLVTNKRTESLYVSESESLLASYDSTPGKQGVNWRESFTAGFLAASNDGKSTEDSVINAVAYANAEGSEWDNYIPTPDKLRAEHVVIKSL”, the “soluble on expression in E. coli” value is on record as “not soluble”.
